Data from US20200113969.

Columns and labels:
[1] = target: peak 2 of the RP-HPLC fractionation of L. albus deflamin (UniProt F5B8W8)
[2] = tested on: deflamin isolated from Lupinus albus seeds
[3] = tested on: peak 1 of the RP-HPLC fractionation of L. albus deflamin
[4] = target: peak 3 of the RP-HPLC fractionation of L. albus deflamin (UniProt F5B8W8)
[5] = tested on: peak 4 of the RP-HPLC fractionation of L. albus deflamin

Chain of MMP-9 (commercial enzyme, Sigma) (chain, as listed by the source): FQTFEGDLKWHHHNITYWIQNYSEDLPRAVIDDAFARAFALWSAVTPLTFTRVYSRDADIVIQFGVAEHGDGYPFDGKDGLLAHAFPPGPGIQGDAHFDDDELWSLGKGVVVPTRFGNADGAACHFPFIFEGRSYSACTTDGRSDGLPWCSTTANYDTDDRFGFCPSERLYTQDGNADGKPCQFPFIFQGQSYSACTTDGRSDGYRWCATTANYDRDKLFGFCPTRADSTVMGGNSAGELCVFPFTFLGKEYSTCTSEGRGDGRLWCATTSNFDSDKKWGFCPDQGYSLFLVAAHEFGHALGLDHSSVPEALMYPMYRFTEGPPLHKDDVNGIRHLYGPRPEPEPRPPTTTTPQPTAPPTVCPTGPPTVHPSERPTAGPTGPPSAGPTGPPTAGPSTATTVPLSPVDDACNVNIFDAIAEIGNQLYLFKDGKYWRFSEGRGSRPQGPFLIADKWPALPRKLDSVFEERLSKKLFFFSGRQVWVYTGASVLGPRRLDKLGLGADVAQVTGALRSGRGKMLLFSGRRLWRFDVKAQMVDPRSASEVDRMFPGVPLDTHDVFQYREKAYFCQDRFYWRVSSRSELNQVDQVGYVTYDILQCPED
Chain of deflamin isolated from Lupinus albus seeds (chain, as listed by the source, chain 1 of 2): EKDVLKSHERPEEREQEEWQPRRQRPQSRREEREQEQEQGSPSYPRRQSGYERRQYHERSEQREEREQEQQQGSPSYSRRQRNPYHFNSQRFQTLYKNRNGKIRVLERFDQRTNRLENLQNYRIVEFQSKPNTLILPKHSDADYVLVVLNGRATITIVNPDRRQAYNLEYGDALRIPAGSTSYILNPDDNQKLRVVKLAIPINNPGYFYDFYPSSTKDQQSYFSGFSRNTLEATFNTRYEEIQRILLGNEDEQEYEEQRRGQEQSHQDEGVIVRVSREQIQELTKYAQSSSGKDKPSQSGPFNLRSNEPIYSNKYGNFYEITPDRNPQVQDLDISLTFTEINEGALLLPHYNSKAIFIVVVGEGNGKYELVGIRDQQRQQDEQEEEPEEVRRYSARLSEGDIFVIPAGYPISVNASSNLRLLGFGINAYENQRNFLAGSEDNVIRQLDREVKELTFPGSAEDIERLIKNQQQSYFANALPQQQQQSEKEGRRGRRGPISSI
Chain of deflamin isolated from Lupinus albus seeds (chain, as listed by the source, chain 2 of 2): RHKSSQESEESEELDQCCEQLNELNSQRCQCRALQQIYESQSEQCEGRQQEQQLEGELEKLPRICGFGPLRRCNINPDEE
Chain of peak 2 of the RP-HPLC fractionation of L. albus deflamin (F5B8W8 whole entry, looked up): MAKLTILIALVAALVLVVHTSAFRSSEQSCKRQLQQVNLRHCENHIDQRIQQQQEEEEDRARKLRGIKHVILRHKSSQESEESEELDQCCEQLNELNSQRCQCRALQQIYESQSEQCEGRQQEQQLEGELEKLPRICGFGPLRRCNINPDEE
Chain of peak 3 of the RP-HPLC fractionation of L. albus deflamin (F5B8W8 whole entry, looked up): as above

MMP-9 (commercial enzyme, Sigma)
MMP-9 proteolytic activity, DQ fluorogenic assay, 25 µg/ml [1]: all the selected peaks presented some degree of MMP inhibition | MMP-9 proteolytic activity on DQ-gelatin, deflamin at 50 µg/mL [2]: the highest inhibition (P<0.05) detected for deflamin, which induced a reduction greater than 80% of MMP-9 activity | MMP-9 proteolytic activity, DQ fluorogenic assay, 25 µg/ml [3]: all the selected peaks presented some degree of MMP inhibition | MMP-9 proteolytic activity, DQ fluorogenic assay, 25 µg/ml [4]: all the selected peaks presented some degree of MMP inhibition and also inhibited invasion, but peak 3 was the one with the highest observed activities | MMP-9 proteolytic activity, DQ fluorogenic assay, 25 µg/ml [5]: all the selected peaks presented some degree of MMP inhibition
